The text below walks through data of PMC4678816, “Structural basis for suppression of hypernegative DNA supercoiling by E. coli topoisomerase I”.

The target in data set [1] is E. coli topoisomerase I (EcTOP1) (Escherichia coli, UniProt P06612 1-865). The experiment in a line: X-ray crystallography; 1 mM ZnSO4, pH 6.0; 2.9 A; ssDNA 3' end bound by D5, D7, D8, D9 and R189; Footprinting: 40 mM Tris-HCl (pH not stated), 0.1 mg/ml BSA, 5 mM MgCl2, 37 C, 1 h; crystals: 0.125 M ammonium sulfate, 0.1 M MES pH 6.0, 1 mM ZnSO4, 19% PEG MME 5000, 24 C. The settings on record: protein: recombinant; tags: N-terminal His6 removed with TEV protease; label: none in crystal; 3' overhang 9 nt on O29; 20 bp duplex.

The next data set deals with EcTOP1-G116S (Escherichia coli, UniProt P06612 1-865, G116S). Briefly: DNase I footprinting; 5 mM MgCl2; partial protection of double-stranded region, both strands; Footprinting: 40 mM Tris-HCl (pH not stated), 0.1 mg/ml BSA, 5 mM MgCl2, 37 C, 1 h; crystals: 0.125 M ammonium sulfate, 0.1 M MES pH 6.0, 1 mM ZnSO4, 19% PEG MME 5000, 24 C. The note with it: protein: recombinant; label: 5' 32P on G-strand or T-strand; duplex with 12-nt unpaired bubble.

B1: O29-O20 partial duplex (mixed)
DNA 1: GCTAAACCTGAAAGATTATGCGATTTGGG
DNA 2: CATAATCTTTCAGGTTTAGC
As to B1, in data set [1], the binding result is given as “binds”.

B2: DNA bubble substrate (G-strand/T-strand) (mixed)
DNA 1: GCCCTGAAAGATTATGGAATGCGATTAGTTCAAGAGCGTGAGCG
DNA 2: CGCTCACGCTCTTGAAGTAGAGGAAGGACATAATCTTTCAGGGC
Take B2: the binding result with EcTOP1-G116S was “binds”.
